Experimental data as given in paper PMC4332860.

Biological target: Human coagulation factor X (human)
Assay: SPR; human FX amine-coupled to a CMD500m chip; vector particles 1.25x10^8 to 1x10^9 physical particles per millilitre passed for 3 min at 25 μl/min; 10 mM HEPES pH 7.4, 150 mM NaCl, 5 mM CaCl2, 0.005% Tween 20; reference flow cell subtracted

How did the percent reduction of binding against AdGFPhWt turn out when “AdGFPhCKS17, ΔE1/E3 Ad5 vector particles with CKS17 peptide in place of hexon HVR5 (from UniProt P04133 1-952; P11818 1-581) (complex)” was run?
The percent reduction of binding against AdGFPhWt was 30%.
